The record followed here is patent publication US20210380703A1 (RIGEL PHARMACEUTICALS, published 2021).

Numbering of substitutions follows the chain as printed.

The labels stand for the following.
B1: 375_B03 (antibody, V domains shown)
VH: EVQLLESGGGLVQPGGSLRLSCAASGFTFSSYSMNWVRQAPGKGLEWVAGINYNGGYTSYADSVKGRFTISRDNSKNTLYLQMNSLRAEDTAVYYCARGATWHDTHLDYWGQGTLVTVSS
VL: DIQMTQSPSSLSASVGDRVTITCRASQSILTYLNWYQQKPGKAPKLLIYAATSRASGVPSRFSGSGSGTDFTLTISSLQPEDFATYYCQQSYDSPLTFGGGTKVEIK
notes: VH/VL only
B2: 365_C11 (antibody, V domains shown)
VH: B1 VH with T58K, G99S, T101N
VL: B1 VL with L30I, L47V, A51V, D93S, S94L
notes: VH/VL only
B3: 365_F06 (antibody, V domains shown)
VH: B1 VH with S33G, G55S, T58K, G99S, T101N, H106A
VL: B1 VL with T31S, L33V, Y92D, D93N, S94L
notes: VH/VL only
B4: 365_D07 (antibody, V domains shown)
VH: B1 VH with S33G, A49S, G50S, G55S, T58K
VL: not shown
notes: VH/VL only
B5: 365_B07 (antibody, V domains shown)
VH: B1 VH with S33G, N35H, G50S, G55S, G99S, T101N, H106A
VL: B1 VL with D93E, S94N
notes: VH/VL only
B6: 365_E09 (antibody, V domains shown)
VH: B1 VH with S33G, N35H, G50S, G55S, T58K, G99S, T101N, H106A
VL: B1 VL with L33V, L47V, Y92D
notes: VH/VL only
B7: 365_B11 (antibody, V domains shown)
VH: B1 VH with S33G, N35H, G99S, T101N, H106A
VL: B1 VL with L30I, T31S, L47V, A51T, A55H
notes: VH/VL only
B8: 365_E07 (antibody, V domains shown)
VH: B1 VH with S30D, S33G, N35H, A49S, G55S, R98K, G99S, T101N
VL: B1 VL with T31S, S94N
notes: VH/VL only
B9: 365_E01 (antibody, V domains shown)
VH: B1 VH with S31D, A49S, G55S, T58K, S59G, G99S, T101N, H106A
VL: B1 VL with L30I, T31S
notes: VH/VL only
B10: 365_H05 (antibody, V domains shown)
VH: B1 VH with S33G
VL: B1 VL with L33V, R54L, A55H, D93S, S94T
notes: VH/VL only
B11: 365_A03 (antibody, V domains shown)
VH: B1 VH with G55S, T58K, S59G, G99S, T101N, H106A
VL: B1 VL with T31S, L47V, A51V
notes: VH/VL only
B12: 365_E11 (antibody, V domains shown)
VH: B1 VH with S30D, S31D, A49S, G50S, T58K
VL: not shown
notes: VH/VL only
B13: 365_F05 (antibody, V domains shown)
VH: B1 VH with S33G, G50S
VL: B1 VL with L30V, L33V, D93E, S94T
notes: VH/VL only
B14: 365_E05 (antibody, V domains shown)
VH: B1 VH with S33G, N35H, G99S, T101N, H106A
VL: B1 VL with L30V, T31S, L33V, R54L, S94N
notes: VH/VL only
B15: 365_G11 (antibody, V domains shown)
VH: B1 VH with S33G, G50N, S59G, G99S, T101N, H106A
VL: B1 VL with L30I, L33V, A51V, A55H, D93N
notes: VH/VL only
B16: 365_C10 (antibody, V domains shown)
VH: B1 VH with S33G, N35H, G50S, G99S, T101N, H106A
VL: B1 VL with T31S, L33V, R54L, D93E
notes: VH/VL only
B17: 365_D09 (antibody, V domains shown)
VH: B1 VH with S33G, N35H, A49S, G55S, G99S, T101N, H106A
VL: B1 VL with T31S, Y92D, D93E
notes: VH/VL only
B18: 365_D11 (antibody, V domains shown)
VH: B1 VH with S30D, S33G, A49S, G50N, G55S, G99S, T101N, H106A
VL: B1 VL with L30V, T31S, L47V, D93S
notes: VH/VL only
B19: 365_D10 (antibody, V domains shown)
VH: B1 VH with S59G
VL: B1 VL with L30S, D93E
notes: VH/VL only
B20: 365_C02 (antibody, V domains shown)
VH: B1 VH with S30D, A49S, G50N, T58K, S59G
VL: B1 VL with L30S, L47V, A55H, D93E, S94N
notes: VH/VL only
B21: 365_G01 (antibody, V domains shown)
VH: B1 VH with S30D, S33G, G55S, T58K, G99S, T101N, H106A
VL: B1 VL with L33V, A51T
notes: VH/VL only
B22: 365_D02 (antibody, V domains shown)
VH: B1 VH with N35H, G50S
VL: B1 VL with L30V, R54L, S94N
notes: VH/VL only
B23: 365_D12 (antibody, V domains shown)
VH: B1 VH with S30D, S33G, A49S, G50N, S59G, G99S, T101N, H106A
VL: B1 VL with L30V, L47V, S94T
notes: VH/VL only
B24: 365_A11 (antibody, V domains shown)
VH: B1 VH with S30D, S31D, S33G, A49S, G55S, G99S, T101N, H106A
VL: B1 VL with T31S, L47V, R54L, D93E
notes: VH/VL only
B25: 365_A12 (antibody, V domains shown)
VH: B1 VH with S33G, N35H, R98K, G99S, T101N
VL: B1 VL with L33V, A55H, D93E, S94N
notes: VH/VL only
B26: 365_A08 (antibody, V domains shown)
VH: B1 VH with G50S, T58K
VL: B1 VL with L30I, L47V, Y92D, D93N, S94T
notes: VH/VL only
B27: 365_C04 (antibody, V domains shown)
VH: B1 VH with S30D, G50N, T58K, S59G
VL: B1 VL with L47V, R54L, S94T
notes: VH/VL only
B28: 365_A09 (antibody, V domains shown)
VH: B1 VH with S33G, N35H, G50S
VL: B1 VL with T31S, L33V, S94L
notes: VH/VL only
B29: 365_F12 (antibody, V domains shown)
VH: B1 VH with S31D, A49S, G99S, T101N
VL: B1 VL with L33V, L47V, A55H, D93E, S94T
notes: VH/VL only
B30: 365_H02 (antibody, V domains shown)
VH: B1 VH with S31D, S33G, A49S, G50S, S59G, G99S, T101N
VL: B1 VL with D93E, S94N
notes: VH/VL only
B31: 369_F08 (antibody, V domains shown)
VH: B1 VH with S31D, S33G, N35H, A49S, G55S, T101N, H106A
VL: B1 VL with T31S, T52S, R54L, A55Q, S94L
notes: Group III
Note: test concentration or dose not given here.

Chain of Mouse ACVR2A (P27038 20-135 limits assumed): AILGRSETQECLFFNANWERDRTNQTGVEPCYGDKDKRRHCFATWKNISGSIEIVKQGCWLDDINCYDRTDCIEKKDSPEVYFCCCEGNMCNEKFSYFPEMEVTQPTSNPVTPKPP
T1 sequence (P27037 20-135 limits assumed): as the sequence (P27038 20-135 limits assumed) above, with R20K, I73V counted along it

One assay has as its target T1, Human ACVR2A (human, UniProt P27037 20-135, limits assumed).
T1 construct: also called activin receptor, type II A
The assay can be described thus: ELISA. As to the method: (§1) The binding of ACVR2A-specific monoclonal antibodies to human ACVR2A, mouse ACVR2A, biotinylated goat anti-human kappa light chain (positive control) and human Fc (negative control) were determined by ELISA.
Background: ELISA stands for enzyme-linked immunosorbent assay.
Consider B1, for which the optical density is 3.68 OD.

With B2, the optical density worked out at 2.66 OD.

As for B3, the optical density was 1.95 OD.

Take B4: the optical density was 1.83 OD.

Regarding B5, the optical density came to 2.11 OD.

With B6, the optical density turned out to be 1.91 OD.

Molecule B7 registered an optical density of 2.84 OD.

Consider B8, for which the optical density was 2.38 OD.

Turning to B9, the optical density turned out to be 2.91 OD.

Molecule B10 came in with an optical density of 2.1 OD.

B11 came in with an optical density of 3.4 OD.

Turning to B12, the optical density turned out to be 1.74 OD.

The molecule B13 displayed an optical density of 2.14 OD.

Molecule B14 yielded an optical density of 2.18 OD.

The molecule B15 yielded an optical density of 1.75 OD.

The molecule B16 registered an optical density of 2.45 OD.

Consider B17, for which the optical density stood at 1.52 OD.

The molecule B18 yielded an optical density of 2.34 OD.

Turning to B19, the optical density was determined as 2.39 OD.

The molecule B20 had an optical density of 2.15 OD.

B21 gave an optical density of 2.48 OD.

B22 returned an optical density of 2.54 OD.

As for B23, the optical density was found to be 2.57 OD.

In the case of B24, the optical density was determined as 2.04 OD.

Molecule B25 returned an optical density of 2.67 OD.

Take B26: the optical density turned out to be 1.58 OD.

B27 came in with an optical density of 2.26 OD.

The molecule B28 showed an optical density of 2.45 OD.

B29: the optical density was determined as 2.91 OD.

For the molecule B30, the optical density is 2.73 OD.

The target of the next assay is Mouse ACVR2A (mouse, UniProt P27038 20-135, limits assumed). The assay can be described thus: ELISA. As to the method:
as §1
B1: the optical density is 3.7 OD.

As for B2, the optical density came to 2.78 OD.

As to B3, the optical density came out at 2.08 OD.

For B4, the optical density came to 2.06 OD.

Molecule B5 returned an optical density of 2.21 OD.

Molecule B6 registered an optical density of 2.16 OD.

Molecule B7 had an optical density of 2.75 OD.

Take B8: the optical density came to 2.7 OD.

For the molecule B9, the optical density is 2.84 OD.

The molecule B10 came in with an optical density of 2.19 OD.

For the molecule B11, the optical density is 3.24 OD.

In turn, B12 registered an optical density of 1.74 OD.

B13 registered an optical density of 2.23 OD.

With B14, the optical density was 2.44 OD.

B15 yielded an optical density of 1.78 OD.

B16 returned an optical density of 2.44 OD.

On to B17, for which the optical density is 1.35 OD.

As for B18, the optical density is 2.22 OD.

In turn, B19 yielded an optical density of 2.24 OD.

Molecule B20 registered an optical density of 2.33 OD.

Take B21: the optical density turned out to be 2.65 OD.

B22 yielded an optical density of 2.7 OD.

As to B23, the optical density came out at 2.61 OD.

As to B24, the optical density is 1.94 OD.

As to B25, the optical density stood at 2.87 OD.

B26 displayed an optical density of 1.59 OD.

Take B27: the optical density worked out at 2.67 OD.

Molecule B28 returned an optical density of 2.48 OD.

Regarding B29, the optical density was 2.83 OD.

Molecule B30 returned an optical density of 2.91 OD.

A further assay concerns the target T2, biotinylated goat anti-human kappa light chain.
T2 construct: positive control of the ELISA
In words: ELISA, positive control. As to the method:
as §1
B31: the optical density was 3.1 OD.

The target in the next assay is T3, Goat anti-Human Kappa.
T3 construct: Positive control; also called biotinylated goat anti-human kappa light chain
In words: ELISA; positive control. The method, then:
as §1
On to B1, for which the optical density came out at 3.24 OD.

B2: the optical density was 3.67 OD.

B3: the optical density came out at 3.4 OD.

Consider B4, for which the optical density is 3.38 OD.

The molecule B5 showed an optical density of 3.23 OD.

Take B6: the optical density is 3.47 OD.

B7: the optical density was determined as 3.58 OD.

B8 yielded an optical density of 3.51 OD.

Take B9: the optical density was found to be 3.54 OD.

Turning to B10, the optical density stood at 3.46 OD.

In the case of B11, the optical density was 3.44 OD.

B12: the optical density was determined as 3.57 OD.

Consider B13, for which the optical density amounted to 3.42 OD.

In turn, B14 registered an optical density of 3.36 OD.

Molecule B15 came in with an optical density of 3.47 OD.

On to B16, for which the optical density was determined as 3.41 OD.

The molecule B17 had an optical density of 3.38 OD.

The molecule B18 yielded an optical density of 3.38 OD.

Turning to B19, the optical density turned out to be 3.27 OD.

As to B20, the optical density is 3.45 OD.

Turning to B21, the optical density turned out to be 3.45 OD.

The molecule B22 showed an optical density of 3.52 OD.

B23 returned an optical density of 3.53 OD.

Regarding B24, the optical density stood at 3.27 OD.

With B25, the optical density is 3.67 OD.

Molecule B26 registered an optical density of 3.2 OD.

Regarding B27, the optical density worked out at 3.55 OD.

B28 had an optical density of 3.3 OD.

B29: the optical density is 3.63 OD.

In turn, B30 showed an optical density of 3.58 OD.
